Assays:
endogenous IP3R1 = endogenous IP3R1 (UniProt Q14643); assay: sucrose density gradient fractionation
[1] = molecular target: transiently expressed IP3R1 (wild type) (human) (UniProt Q14643); assay: sucrose density gradient fractionation

endogenous IP3R1, Q14643-1 1-2758 (receptor), sequence (Q14643 whole entry): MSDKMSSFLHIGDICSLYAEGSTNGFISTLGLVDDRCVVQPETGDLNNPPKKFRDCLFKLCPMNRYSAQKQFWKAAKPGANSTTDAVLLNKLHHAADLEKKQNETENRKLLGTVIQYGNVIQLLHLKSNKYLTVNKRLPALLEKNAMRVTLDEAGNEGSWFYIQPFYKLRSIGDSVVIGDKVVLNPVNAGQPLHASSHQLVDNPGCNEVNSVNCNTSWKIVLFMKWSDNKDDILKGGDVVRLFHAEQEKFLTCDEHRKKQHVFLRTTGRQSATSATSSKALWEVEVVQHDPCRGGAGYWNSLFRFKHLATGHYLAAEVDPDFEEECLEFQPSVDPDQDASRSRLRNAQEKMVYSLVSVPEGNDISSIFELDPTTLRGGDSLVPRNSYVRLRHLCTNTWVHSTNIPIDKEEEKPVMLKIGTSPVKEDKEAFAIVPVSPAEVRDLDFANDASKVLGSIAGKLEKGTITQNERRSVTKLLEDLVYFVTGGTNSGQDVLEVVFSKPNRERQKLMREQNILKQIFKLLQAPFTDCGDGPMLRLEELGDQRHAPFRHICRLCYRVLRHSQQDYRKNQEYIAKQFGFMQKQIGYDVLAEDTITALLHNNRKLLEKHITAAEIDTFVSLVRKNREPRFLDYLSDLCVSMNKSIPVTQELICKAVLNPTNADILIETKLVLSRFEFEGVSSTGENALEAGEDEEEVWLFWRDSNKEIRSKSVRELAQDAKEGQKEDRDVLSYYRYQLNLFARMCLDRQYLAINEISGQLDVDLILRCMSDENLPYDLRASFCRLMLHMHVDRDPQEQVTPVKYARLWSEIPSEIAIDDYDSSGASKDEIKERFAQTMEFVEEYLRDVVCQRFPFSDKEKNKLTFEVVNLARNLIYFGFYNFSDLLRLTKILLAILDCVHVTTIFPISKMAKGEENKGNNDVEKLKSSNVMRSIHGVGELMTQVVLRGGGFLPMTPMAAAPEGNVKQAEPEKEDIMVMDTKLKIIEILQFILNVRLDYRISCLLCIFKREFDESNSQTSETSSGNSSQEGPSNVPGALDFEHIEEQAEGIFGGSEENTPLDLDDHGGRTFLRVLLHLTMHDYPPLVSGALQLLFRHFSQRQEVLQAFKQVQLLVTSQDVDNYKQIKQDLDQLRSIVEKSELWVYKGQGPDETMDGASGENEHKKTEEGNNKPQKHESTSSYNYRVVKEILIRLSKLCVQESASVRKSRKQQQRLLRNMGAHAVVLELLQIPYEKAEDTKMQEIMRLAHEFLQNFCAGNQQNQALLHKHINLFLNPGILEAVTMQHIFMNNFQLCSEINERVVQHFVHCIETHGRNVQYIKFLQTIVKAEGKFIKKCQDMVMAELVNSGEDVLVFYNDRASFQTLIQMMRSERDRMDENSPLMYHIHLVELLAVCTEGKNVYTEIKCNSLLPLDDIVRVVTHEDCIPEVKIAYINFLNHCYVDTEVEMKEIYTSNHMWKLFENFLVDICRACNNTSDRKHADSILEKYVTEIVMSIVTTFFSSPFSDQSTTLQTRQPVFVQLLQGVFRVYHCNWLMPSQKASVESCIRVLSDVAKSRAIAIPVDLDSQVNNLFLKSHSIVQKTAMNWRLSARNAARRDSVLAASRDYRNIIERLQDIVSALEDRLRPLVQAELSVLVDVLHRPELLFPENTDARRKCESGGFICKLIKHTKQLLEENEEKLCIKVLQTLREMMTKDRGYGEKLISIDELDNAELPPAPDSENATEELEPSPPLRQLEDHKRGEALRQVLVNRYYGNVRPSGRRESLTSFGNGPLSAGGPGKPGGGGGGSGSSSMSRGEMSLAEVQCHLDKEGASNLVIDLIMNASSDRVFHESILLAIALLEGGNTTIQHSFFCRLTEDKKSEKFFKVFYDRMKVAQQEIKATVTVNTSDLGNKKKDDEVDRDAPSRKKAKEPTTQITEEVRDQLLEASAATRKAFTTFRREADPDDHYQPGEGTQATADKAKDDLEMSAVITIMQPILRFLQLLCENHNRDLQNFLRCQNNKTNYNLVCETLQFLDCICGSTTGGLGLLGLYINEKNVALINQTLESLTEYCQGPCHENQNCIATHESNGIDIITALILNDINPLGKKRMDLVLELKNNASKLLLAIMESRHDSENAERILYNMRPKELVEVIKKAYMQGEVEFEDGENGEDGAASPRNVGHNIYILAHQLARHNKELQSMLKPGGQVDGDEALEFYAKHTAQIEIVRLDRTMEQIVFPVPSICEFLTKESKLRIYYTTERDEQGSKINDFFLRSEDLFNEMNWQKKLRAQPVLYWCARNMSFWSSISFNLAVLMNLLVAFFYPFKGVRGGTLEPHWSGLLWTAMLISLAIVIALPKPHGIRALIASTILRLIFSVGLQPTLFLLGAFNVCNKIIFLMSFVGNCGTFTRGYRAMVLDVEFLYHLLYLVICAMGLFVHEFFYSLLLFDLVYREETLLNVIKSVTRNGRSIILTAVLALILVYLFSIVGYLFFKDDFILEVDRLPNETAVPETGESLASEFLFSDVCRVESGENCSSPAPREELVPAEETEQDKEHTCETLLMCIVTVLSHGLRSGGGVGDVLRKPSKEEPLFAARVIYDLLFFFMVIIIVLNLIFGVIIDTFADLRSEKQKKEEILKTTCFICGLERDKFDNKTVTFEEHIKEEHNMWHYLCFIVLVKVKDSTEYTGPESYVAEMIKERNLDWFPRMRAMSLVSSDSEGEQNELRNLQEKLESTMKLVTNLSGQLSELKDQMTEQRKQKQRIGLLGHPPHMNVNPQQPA

Row | Substance | stoichiometry N (endogenous IP3R1) | stoichiometry N [1]
1 | endogenous IP3R1, Q14643-1 1-2758 (receptor) | 4 | –
2 | transiently expressed IP3R1 (wild type), Q14643-1 1-2758 (receptor) | – | 4

Source: PMC10235943
